Twelve molecules from patent US20160130302A1 can be followed below.

Data set [1] concerns ψPDK-Cs-sC-TAT (ψPDK linked to TAT47-57 by a disulfide bond).
In data set [2] the target is rat δPKC (endogenous, in perfused rat hearts) (rat) (UniProt P09215). Briefly: cell-based or functional assay.
Data set [3] deals with T1, ψPDK peptide (ALSTER), non-TAT conjugated.
T1 sequence: ALSTER

Data set [4] deals with rat δPKC (endogenous, in perfused rat hearts) (rat), P09215. Briefly: cell-based or functional assay.

Positions of bridges follow the written chain, without caps; N, C: chain ends. Chains are numbered I, II in the order given. No end group written: not given here.

Sequence of rat δPKC (endogenous, in perfused rat hearts) (rat) (P09215 whole entry, stated change not applied, the tested form may be a part): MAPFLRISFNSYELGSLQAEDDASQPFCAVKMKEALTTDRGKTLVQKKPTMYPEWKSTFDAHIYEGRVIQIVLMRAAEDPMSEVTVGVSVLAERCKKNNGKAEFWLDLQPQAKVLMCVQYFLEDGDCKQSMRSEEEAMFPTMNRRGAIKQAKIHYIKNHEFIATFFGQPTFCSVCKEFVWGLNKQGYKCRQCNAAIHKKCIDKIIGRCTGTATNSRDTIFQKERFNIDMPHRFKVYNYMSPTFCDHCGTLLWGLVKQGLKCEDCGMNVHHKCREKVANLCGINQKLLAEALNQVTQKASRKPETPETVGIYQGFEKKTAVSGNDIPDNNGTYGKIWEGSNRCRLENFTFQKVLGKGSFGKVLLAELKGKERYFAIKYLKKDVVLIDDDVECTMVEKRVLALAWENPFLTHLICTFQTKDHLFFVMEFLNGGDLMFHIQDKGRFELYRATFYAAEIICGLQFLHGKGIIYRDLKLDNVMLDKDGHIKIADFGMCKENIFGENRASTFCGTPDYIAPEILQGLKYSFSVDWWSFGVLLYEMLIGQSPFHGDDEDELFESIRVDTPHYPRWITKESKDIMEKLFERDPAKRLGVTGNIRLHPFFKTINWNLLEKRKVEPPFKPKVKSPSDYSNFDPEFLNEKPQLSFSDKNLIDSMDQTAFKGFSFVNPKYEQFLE
Sequence of rat δPKC (endogenous, in perfused rat hearts) (rat), P09215 (P09215 whole entry, stated change not applied, the tested form may be a part): as above

Consider “mouse δPKC (endogenous, in fibroblasts from wild-type mice)”, for which the “MARCKS phosphorylation in wild-type fibroblasts” value in data set [1] is on record as “increased MARCKS phosphorylation relative to the control peptide”.
p193 (ALATER), TAT-conjugated (peptide): in data set [2], the CPK (u/L) turned out to be 1160 u/L and the p-JNK/total JNK is 0.7.
As for “p199 (ALS(p)T(p)ER), TAT-conjugated (peptide)”, in data set [2], the CPK (u/L) worked out at 842 u/L and the p-JNK/total JNK was determined as 0.6.
As to “rat δPKC (endogenous, in perfused rat hearts)”, in data set [1], the “I/R-induced MARCKS phosphorylation in hearts” value is “an increase in I/R-induced MARCKS phosphorylation was observed in the presence of ψPDK, as compared with control peptide”; the “phosphorylation of PDK2 and of the E1 subunit of PDH after I/R (2-D IEF)” value is on record as “the phosphorylation of those two enzymes (shown by a shift to acidic pH by 2-D IEF analysis) did not occur in the presence of either ψPDK or in the presence of δV1-1”.
In data set [2], p192 (AASTER), TAT-conjugated (peptide) yielded a CPK (u/L) of 1270 u/L and a p-JNK/total JNK of 0.7.
As for p196 (ALSTEA), TAT-conjugated (peptide), in data set [2], the CPK (u/L) is 926 u/L and the p-JNK/total JNK was 0.9.
Take p195 (ALSTAR), TAT-conjugated (peptide): in data set [2], the CPK (u/L) came out at 913 u/L and the p-JNK/total JNK was 0.7.
In data set [2], p194 (ALSAER), TAT-conjugated (peptide) displayed a CPK (u/L) of 886 u/L and a p-JNK/total JNK of 0.6.
human recombinant δPKC (Invitrogen): in data set [3], the “in vitro phosphorylation of Drp1 by δPKC” value is “ψPDK did not affect Drp1 phosphorylation” and the “δPKC phosphorylation of PDK (in vitro kinase assay)” value was “ψPDK inhibited δPKC phosphorylation of PDK by ˜30%”.
“p198 (ALS(p)TER), TAT-conjugated (peptide)”: in data set [2], the CPK (u/L) worked out at 1170 u/L and the p-JNK/total JNK is 0.9.
As for “p197 (ALST(p)ER), TAT-conjugated (peptide)”, in data set [2], the CPK (u/L) came out at 803 u/L and the p-JNK/total JNK came to 0.7.

B1: ψPDK-Cs-sC-TAT (ψPDK linked to TAT47-57 by a disulfide bond) (peptide)
peptide: ALSTERC-NH2
chain: YGRKKRRQRRRC-NH2
modifications: disulfide I:7-II:12; N-terminus assumed
SMILES: CC(C)C[C@H](NC(=O)[C@H](C)N)C(=O)N[C@@H](CO)C(=O)N[C@H](C(=O)N[C@@H](CCC(=O)O)C(=O)N[C@@H](CCCNC(=N)N)C(=O)N[C@@H](CSSC[C@H](NC(=O)[C@H](CCCNC(=N)N)NC(=O)[C@H](CCCNC(=N)N)NC(=O)[C@H](CCCNC(=N)N)NC(=O)[C@H](CCC(N)=O)NC(=O)[C@H](CCCNC(=N)N)NC(=O)[C@H](CCCNC(=N)N)NC(=O)[C@H](CCCCN)NC(=O)[C@H](CCCCN)NC(=O)[C@H](CCCNC(=N)N)NC(=O)CNC(=O)[C@@H](N)Cc1ccc(O)cc1)C(N)=O)C(N)=O)[C@@H](C)O
In data set [4], B1 had a CPK (u/L) of 335 u/L, a p-JNK/total JNK of 0.4 and a δPKC association with the mitochondria after I/R of 2 fold.
